Patent US20140294815A1 (NVIP, published 2014)

Assays:
human TNF = biological target: T1, human TNF (human, UniProt P01375 77-233); test: binding assay of FIG. 12(a) Panel B
T1 construct: also called huTNF

[1] = biological target: T2, canine tumour necrosis factor alpha (canine, UniProt P51742 77-233); test: ELISA, canine TNFa coated, antibody 5 ug/ml to 0.05 ug/ml
T2 construct: Coated at 5 ug/ml in the ELISA; used at 1 ng/mL in the reporter assay; also called canine TNF; canine TNFa
Description: The resultant supernatants were purified on Protein A, analysed by SDS-PAGE (FIG. 10A) and tested for binding to canine TNFa (coated at 5 ug/ml; R&D systems) at the indicated concentrations of antibody (ug/ml) by ELISA and detected using anti-canine polyclonal antibody-horseradish peroxidase conjugate (Sigma A9042) (FIG. 10B). The negative control was the detection polyclonal on coated antigen alone.

[2] = biological target: T2, canine tumour necrosis factor alpha; test: binding assay of FIG. 12(a) Panel C, compared with the D2E7 based MAbs

T1 sequence (P01375 77-233 limits assumed): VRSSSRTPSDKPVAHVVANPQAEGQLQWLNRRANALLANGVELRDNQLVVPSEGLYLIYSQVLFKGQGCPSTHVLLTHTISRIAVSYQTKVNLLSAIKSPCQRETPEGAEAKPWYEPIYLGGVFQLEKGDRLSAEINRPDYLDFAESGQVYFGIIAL
T2 sequence (P51742 77-233 limits assumed): as the sequence (P01375 77-233 limits assumed) above, with R2K, Q21E, N30S, R44T, V49I, E53D, I83F, A109T, R138L, D140N counted along it

B1: caninised anti-TNF monoclonal antibody (SEQ ID NO:3 light chain plus SEQ ID NO:5 heavy chain), based on D2E7 (antibody, V domains shown)
VH: not shown
VL: DIVMTQSPASLSLSQEEKVTITCRASQGIRNYLAWYQQKPGQAPKLLIYAASTLQSGVPSRFSGSGSGTDFTLTISSLEPEDVAVYYCQRYNRAPYTFGQGTKVEIKR
notes: canine IgG-B heavy chain, kappa light chain; also called ca-HCB+ca-kLC; caninised (Ca) D2E7 based MAb
B1: binds (human TNF); binds [1].

B2: caninised anti-huTNF MAb 148 (SEQ ID NO:18 plus SEQ ID NO:19) (antibody, V domains shown)
VH: EVQLVESGGGVVQPGGSLRLSCAASGFIFSSYAMRWVRQAPGKGLEWVAFMSYDGSNKKYADSVKGRFTISRDNSKNTLYLQMNSLRAEDTAVYYCARDRGIAAGGNYYYYGMDVWGQGTSVTVSS
VL: EIVMTQSPASLSLSPGEKATISCRASQSVYSYLAWYQQKPGQAPRLLIYDASNRATGVPSRFSGSGSGTDFTLTISSLEPEDVAVYYCQQPSNWPPFTFGPGTKVDIKR
notes: Expressed in CHO cells and purified by Protein A chromatography; also called ca148-HCB
B2: binds (human TNF); no binding [2].
